In the supplement of paper PMC9170038:

System: MS2 coat protein
Experiment: apparent KD of MS2 coat protein; designed switch direction (-1 OFF switch, 1 ON switch): 1; higher = weaker reporter binding
Procedure, shortened: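 Designed RNA switches with common flanks were transcribed on Illumina chips by stalled E. coli RNA polymerase and titrated with SNAP-549-labelled MS2 coat protein, from 0.7 or 1.5 nM doubling to 3 µM, in Tris-HCl pH 7.5 buffer with KCl, MgCl2, BSA, DTT, tRNA and Tween-20. Steps lasted 0.8–1.5 h (lowest) to 10–20 min (highest). Titrations ran without input, with 200 uM small-molecule ligand, or with an oligonucleotide input. Normalised cluster fluorescence was curve-fitted, and apparent KD is the per-design median over clusters.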

[1] = input ligand: microRNA oligo, concentration not stated
[2] = Eterna round: R95, input ligand: FMN 200 uM
[3] = Eterna round: R95, input ligand: microRNA oligo, concentration not stated
[4] = Eterna round: R95, input ligand: none

Sequence	apparent KD of MS2 coat protein (input ligand: FMN 200 uM) [µM]	apparent KD of MS2 coat protein [1] [µM]	apparent KD of MS2 coat protein (input ligand: none) [µM]	apparent KD of MS2 coat protein [2] [µM]	apparent KD of MS2 coat protein [3] [µM]	apparent KD of MS2 coat protein [4] [µM]
GGAGCCGGCCUAGGAUAUUUCAUAUAAUAACAUGAGGAUCACCCAUGUAGGCCAGAAGGCCUUGGGAAGAAGGAGGUCGGCUCC [Loop Effect - U25,U28] (Eterna round: R96, puzzle: Same State NG 2)	0.0131	0.0391	0.0508	–	–	–
AUCCUACAUGAGGAUCACCCAUGUGACGCCUCGAUAGGAUAUGCGUGUGCCUUGGCGCAUGCAGAAGGAUUGUUGC [JL Aveso mod 7] (puzzle: Same State 1)	–	–	–	0.0692	0.0175	0.0271
GGUCGGUCCUACAUGAGGAUCACCCAUGUUCCGGAAACGGCAUAGGAUAUCUGUCCGAAAAGGUCAGAGAAGGGUGAACCGACC [Fiskers NG3ss - 73] (Eterna round: R96, puzzle: Same State NG 3)	0.153	0.118	0.189	–	–	–
GGAGGACAUGAGGAUCACCCAUGUGGAUGGGCGCUAGGAUAUGCGUGCGGGAAGAGUGGAGCAGAAGGAGUGGGUU [JR_SS1_Sub045] (puzzle: Same State 1)	–	–	–	–	0.0374	–
GCUAGAAUUAAUGCCAACAUGAGGAUCACCCAUGUAUGUUGGCAGGAUAUCGUUUGCUUUGCAAACGAGAAGGGCUAAACUAGC [JL SSNG3 1.03] (Eterna round: R96, puzzle: Same State NG 3)	0.217	0.17	0.217	–	–	–
UGUCGUUGCAGAGGAUAUGGGAACUCGAUGCCGUAAGGUAUCAUAACAUGAGGAUCACCCAUGUCCCAGAAGGCUGCAGCAAGC [Leatve Mod] (Eterna round: R96, puzzle: Same State NG 2)	0.0297	0.094	0.235	–	–	–
GGUCCAGCCUGAGCUGGACAAAAGCAUGUACAUGAGGAUCACCCAUGUUAUGUACAAGCUUUUUGCUCGUCUUAAAA [JL mod - D87 - 10] (puzzle: Sensor for hsa-mir-208a)	–	–	–	0.172	0.0126	0.231
GCUGCAAAGGCAGGAUAUGGGUCCAGAGCGCAAAUGCGCUCUGGUACAUGAGGAUCACCCAUGUCCCAGAAGGGCCCAAGCAGC [Inleedbi] (Eterna round: R96, puzzle: Same State NG 2)	0.017	0.0613	0.117	–	–	–
GUUACAUGAGGAUCACCCAUGUAUGUGUGGGAGUAAGUGUCUUAGGAUAUCUAUGAUAUAAUUUAAGAGAAGGAAGAUUGUUGU [JMF's solution 75] (Eterna round: R96, puzzle: Same State NG 3)	0.103	0.0699	0.136	–	–	–
AUUUAACAAGCUUUUUGCUCGUCUUAUAAACAUGAGGAUCACCCAUGUAAUAGCGUGAGAGUAAAUAAUUUAAUUAU [JMF 99] (puzzle: Sensor for hsa-mir-208a)	–	–	–	0.0137	0.0486	0.0108
GAGGAUGAUUUACAGGAUAUAUAGCAGAUGACAUGAGGAUCACCCAUGUAAGAGAAAGGAGGGAGAUAGAAGGGUAUGGGAGGUG [JR_SS2_Sub038] (puzzle: Same State 2)	–	–	–	0.0293	0.0354	0.0435
GUUACAUGAGGAUCACCCAUGUAUGUGUGGGAGUAAGUGUCUUAGGAUAUCUGUUAUUAAAUUUAAGAGAAGGAAGAUUGUUGU [JMF's solution 36] (Eterna round: R96, puzzle: Same State NG 3)	0.104	0.0641	0.0927	–	–	–
GGUCGGACUCACAUGAGGAUCACCCAUGUUGCGGAAACGCGAUAGGAUAUCUGUCCGAAAAGGUCAGAGAAGGGUCAACCGACC [Fiskers NG3ss - 64] (Eterna round: R96, puzzle: Same State NG 3)	0.447	0.486	0.567	–	–	–
GCUAGAAAUAAAGCCAACAUGAGGAUCACCCAUGUAUGUUGGUAGGAUAUCGUAUGCAAAGCAUACGAGAAGGGCCAAACUAGC [Mat - Same State NG 3 - JL Mod - D21] (Eterna round: R96, puzzle: Same State NG 3)	0.0723	0.0654	0.122	–	–	–
CAUAAUAAAACGGAGGAUAUGCUACCCUUCACAUGAGGAUCACCCAUGUUACCCUCUUAUUUUCAGUAGAAGGCCGAUACAUAAC [Delilah] (puzzle: Same State 2)	–	–	–	0.0381	0.0319	0.0389
AAACGGGCUACAGGAUAUGCUCGAUAAACUUCAGUAGAAGGGUGGCCUUAUCAACGAACAUGAGGAUCACCCAUGUUCUACAAC [Dianrisole] (Eterna round: R96, puzzle: Same State NG 1)	0.0772	0.0283	0.136	–	–	–

Sequence	apparent KD of MS2 coat protein (input ligand: FMN 200 uM) [µM]	apparent KD of MS2 coat protein [1] [µM]	apparent KD of MS2 coat protein (input ligand: none) [µM]	apparent KD of MS2 coat protein [2] [µM]	apparent KD of MS2 coat protein [3] [µM]	apparent KD of MS2 coat protein [4] [µM]
AAGCAUGAAAACAUGCAUAAAAAGUUUGUACAUGAGGAUCACCCAUGUAUGUGCAAGCUUUUUGCUCGUCUUGAAAA [JL SD Zipper 5] (Eterna round: R96, puzzle: Sensor for hsa-mir-208a)	0.171	0.0174	0.171	–	–	–
GGUGGGUUGCUACCGGCACAUGAGGAUCACCCAUGUUUUGGGAAGGAUAUGGUACCUAUUUGGUACCAGAAGGUCCCGUUGGUG [salish99_SSNG3_r04_708] (Eterna round: R96, puzzle: Same State NG 3)	–	0.176	–	–	–	–
AAUUAAUUAAUUAAGUACAUGAGGAUCACCCAUGUAAGUGAUCAGGAUAUCAGCUCGUUUAGAGCUGAGAAGGGAUCCAUGUAC [SSNG3/15-A3] (Eterna round: R96, puzzle: Same State NG 3)	0.359	0.297	0.404	–	–	–
GGAGCCGGUACUGAGGAUAUUCGUAUUAAAACAUGAGGAUCACCCAUGUAGGCCAGAAGGCCUUGGGAGAAGGCAGAUCGGCUCC [Biseusra - 1] (puzzle: Same State 2)	–	–	–	0.0132	0.036	0.0483
AGCCGAGACUGAGGAUAUAGAAAUCUACAUGAGGAUCACCCAUGUAACAACACGUGGUAGUGAUUCUAGAAGGCGGCUCGGCGC [Omei SS(NG)2 Cv4] (Eterna round: R96, puzzle: Same State NG 2)	0.113	0.279	1.15	–	–	–
GGAUGAUAGACAGGAUAUUGAUUGUAAUUUUGUCAAGAAGGGUCUUUGAUUUAAACGACCAGUUACAUGAGGAUCACCCAUGUU [JR_SSNG1_Sub030] (Eterna round: R96, puzzle: Same State NG 1)	0.0201	0.0276	0.0303	–	–	–
CAUCUAUACGUAGGAUAUGUAGGAUAUGCCUACAUGAGGAUCACCCAUGUUCGCAUGGCAGAAGGACAGAAGGACGAACUACUU [pwkr ssNG2 2FMN + 1F5.6] (Eterna round: R96, puzzle: Same State NG 2)	0.0324	0.174	0.234	–	–	–
UAGAACAAGCUUUUUGCCCGUCUUAGAUAACAUGAGGAUCACCCAUGUAAGGUGAAAGUUAGAGAGUGGAGGAAGAA [JR_SHM208A_Sub054] (puzzle: Sensor for hsa-mir-208a)	–	–	–	0.0864	0.217	0.146
AGCUUUUAAUUAGGAUAUGGUCACAUGAGGAUCACCCAUGUAACGAUGAUAUAAUGUGGUCAAGACUAGAAGGGAUCGCUAACA [SameState NG2 #69] (Eterna round: R96, puzzle: Same State NG 2)	0.32	0.282	0.284	–	–	–
AAGAUGCUCGUAGGAUAUUGGAAAGGAAGUGUACAAGAAGGACGGUGUCACAUGAGGAUCACCCAUGUUACAGUCUAAUGACUG [PowerStrip SSNG 1.1] (Eterna round: R96, puzzle: Same State NG 1)	0.0187	0.0535	0.0614	–	–	–
CUGAGCGAUCAAGGAUAUCACGUCGAAUAGACGUGAGAAGGUGAUCCAUACAUGAGGAUCACCCAUGUAUAACAUGAAGCUCAG [SSNG1/8-A1] (Eterna round: R96, puzzle: Same State NG 1)	0.794	0.0216	0.404	–	–	–
AGGCUCGUGCUAGGAUAUCUAGGAUAUGGACGAGGAUUACCCGAGGAGCAUUAGCCCACCAGAGGAGAGAAGGAGCUACAUGCG [pwkr ssNG2 2F5 2FMN.12] (Eterna round: R96, puzzle: Same State NG 2)	1.32	0.509	0.513	–	–	–
GAGGGAUGAGCGUAGGAUAUAGGAGAAGUGACAUGAGGAUCACCCAUGUGGUAUGAGGGAUGAUUCUAGAAGGACGCGGUAGAAG [JR_SS2_Sub063] (puzzle: Same State 2)	–	–	–	0.149	0.399	0.373
AUCAUAGUAGCGCAGGAUAUCCAGGUCGAGACAUGAGGAUCACCCAUGUCAGCAGGAGGACCAGAGGAGAAGGGUGAGAAAAUAA [Bimaan] (puzzle: Same State 2)	–	–	–	0.0125	0.0142	0.0167
UUACUCAUGUAAGGAUAUGCAGCCGUUUCGGCUGCAGAAGGUACUAUAAUACAUGAGGAUCACCCAUGUCUUUUUAAUUUUGAC [JL SSNG1 1.27] (Eterna round: R96, puzzle: Same State NG 1)	0.0793	0.0345	0.0392	–	–	–
